From patent US20210340181A1 come the findings set out here.

The target of assay [1] is T1, αvβ6 integrin (purified), P06756.
T1 chain 1: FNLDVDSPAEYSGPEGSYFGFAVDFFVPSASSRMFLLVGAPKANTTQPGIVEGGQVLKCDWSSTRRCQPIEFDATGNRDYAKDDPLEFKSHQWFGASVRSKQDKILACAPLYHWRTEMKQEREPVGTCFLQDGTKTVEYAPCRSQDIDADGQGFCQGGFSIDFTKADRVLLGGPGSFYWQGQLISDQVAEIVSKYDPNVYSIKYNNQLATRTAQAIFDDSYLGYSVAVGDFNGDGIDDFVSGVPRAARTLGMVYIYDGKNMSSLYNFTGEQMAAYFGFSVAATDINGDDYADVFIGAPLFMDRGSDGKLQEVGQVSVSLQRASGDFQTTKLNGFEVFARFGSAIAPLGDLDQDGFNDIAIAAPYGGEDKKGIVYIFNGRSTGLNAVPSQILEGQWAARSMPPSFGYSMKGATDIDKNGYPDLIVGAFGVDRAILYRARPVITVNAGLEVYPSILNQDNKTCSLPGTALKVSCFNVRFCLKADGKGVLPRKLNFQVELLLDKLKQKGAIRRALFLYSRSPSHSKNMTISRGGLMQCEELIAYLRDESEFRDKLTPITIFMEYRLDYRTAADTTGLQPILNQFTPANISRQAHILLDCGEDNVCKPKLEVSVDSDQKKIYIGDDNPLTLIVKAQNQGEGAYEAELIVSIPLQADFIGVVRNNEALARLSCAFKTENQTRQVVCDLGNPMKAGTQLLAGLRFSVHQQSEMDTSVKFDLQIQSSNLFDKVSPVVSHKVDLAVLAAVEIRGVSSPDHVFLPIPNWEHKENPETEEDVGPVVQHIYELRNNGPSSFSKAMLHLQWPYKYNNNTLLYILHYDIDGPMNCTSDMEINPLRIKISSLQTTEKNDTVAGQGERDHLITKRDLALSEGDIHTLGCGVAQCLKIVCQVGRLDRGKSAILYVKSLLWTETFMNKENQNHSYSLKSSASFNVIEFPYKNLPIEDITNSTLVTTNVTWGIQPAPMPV
T1 chain 2: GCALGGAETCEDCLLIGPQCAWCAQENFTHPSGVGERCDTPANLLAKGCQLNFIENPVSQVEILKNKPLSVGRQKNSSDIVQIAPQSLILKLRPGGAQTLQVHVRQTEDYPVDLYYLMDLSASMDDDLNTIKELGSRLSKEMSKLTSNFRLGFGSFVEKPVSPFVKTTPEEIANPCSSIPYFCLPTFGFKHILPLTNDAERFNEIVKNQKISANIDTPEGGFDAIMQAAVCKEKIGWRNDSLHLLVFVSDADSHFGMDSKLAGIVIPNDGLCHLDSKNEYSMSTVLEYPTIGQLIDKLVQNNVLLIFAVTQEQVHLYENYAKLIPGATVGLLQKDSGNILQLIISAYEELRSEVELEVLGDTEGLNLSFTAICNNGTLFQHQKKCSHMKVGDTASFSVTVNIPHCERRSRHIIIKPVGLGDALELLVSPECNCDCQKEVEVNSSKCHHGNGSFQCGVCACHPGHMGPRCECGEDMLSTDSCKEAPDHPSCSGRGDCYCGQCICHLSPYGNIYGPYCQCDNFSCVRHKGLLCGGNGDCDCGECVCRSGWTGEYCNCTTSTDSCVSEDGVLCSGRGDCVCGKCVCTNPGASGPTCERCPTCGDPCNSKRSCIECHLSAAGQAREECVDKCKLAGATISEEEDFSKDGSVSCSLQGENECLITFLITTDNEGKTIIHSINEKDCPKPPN
The assay can be described thus: competitive ELISA vs BtLAP.

Assay [2] concerns the target T2, αvβ6 integrin on DX3puroβ6 (αvβ6+) cells (human), P06756.
T2 chain 1: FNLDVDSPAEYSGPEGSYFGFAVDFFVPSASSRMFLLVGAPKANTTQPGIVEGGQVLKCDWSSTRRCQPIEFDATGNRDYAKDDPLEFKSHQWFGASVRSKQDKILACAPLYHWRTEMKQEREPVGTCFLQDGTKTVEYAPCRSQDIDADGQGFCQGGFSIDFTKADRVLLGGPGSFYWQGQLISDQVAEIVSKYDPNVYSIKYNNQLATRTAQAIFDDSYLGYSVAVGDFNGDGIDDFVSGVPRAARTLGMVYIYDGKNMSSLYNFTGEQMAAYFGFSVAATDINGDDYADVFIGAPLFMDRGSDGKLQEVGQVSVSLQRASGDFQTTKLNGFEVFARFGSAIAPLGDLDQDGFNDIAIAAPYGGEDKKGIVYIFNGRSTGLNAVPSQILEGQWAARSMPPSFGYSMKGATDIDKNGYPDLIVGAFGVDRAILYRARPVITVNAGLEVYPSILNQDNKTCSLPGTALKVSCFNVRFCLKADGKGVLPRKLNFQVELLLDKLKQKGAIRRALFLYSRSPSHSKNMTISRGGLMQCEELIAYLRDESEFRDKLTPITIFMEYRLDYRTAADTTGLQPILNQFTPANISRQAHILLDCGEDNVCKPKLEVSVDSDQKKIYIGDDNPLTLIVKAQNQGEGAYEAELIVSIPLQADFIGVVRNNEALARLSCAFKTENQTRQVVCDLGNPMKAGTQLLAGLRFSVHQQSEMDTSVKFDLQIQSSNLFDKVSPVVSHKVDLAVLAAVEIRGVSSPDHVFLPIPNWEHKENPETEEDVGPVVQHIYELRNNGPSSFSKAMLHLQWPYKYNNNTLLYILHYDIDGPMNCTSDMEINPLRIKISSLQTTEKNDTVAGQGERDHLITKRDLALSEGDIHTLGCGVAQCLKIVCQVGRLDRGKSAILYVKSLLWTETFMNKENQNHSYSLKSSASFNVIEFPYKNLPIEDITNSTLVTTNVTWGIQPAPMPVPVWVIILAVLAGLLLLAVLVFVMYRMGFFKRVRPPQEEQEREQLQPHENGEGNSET
T2 chain 2: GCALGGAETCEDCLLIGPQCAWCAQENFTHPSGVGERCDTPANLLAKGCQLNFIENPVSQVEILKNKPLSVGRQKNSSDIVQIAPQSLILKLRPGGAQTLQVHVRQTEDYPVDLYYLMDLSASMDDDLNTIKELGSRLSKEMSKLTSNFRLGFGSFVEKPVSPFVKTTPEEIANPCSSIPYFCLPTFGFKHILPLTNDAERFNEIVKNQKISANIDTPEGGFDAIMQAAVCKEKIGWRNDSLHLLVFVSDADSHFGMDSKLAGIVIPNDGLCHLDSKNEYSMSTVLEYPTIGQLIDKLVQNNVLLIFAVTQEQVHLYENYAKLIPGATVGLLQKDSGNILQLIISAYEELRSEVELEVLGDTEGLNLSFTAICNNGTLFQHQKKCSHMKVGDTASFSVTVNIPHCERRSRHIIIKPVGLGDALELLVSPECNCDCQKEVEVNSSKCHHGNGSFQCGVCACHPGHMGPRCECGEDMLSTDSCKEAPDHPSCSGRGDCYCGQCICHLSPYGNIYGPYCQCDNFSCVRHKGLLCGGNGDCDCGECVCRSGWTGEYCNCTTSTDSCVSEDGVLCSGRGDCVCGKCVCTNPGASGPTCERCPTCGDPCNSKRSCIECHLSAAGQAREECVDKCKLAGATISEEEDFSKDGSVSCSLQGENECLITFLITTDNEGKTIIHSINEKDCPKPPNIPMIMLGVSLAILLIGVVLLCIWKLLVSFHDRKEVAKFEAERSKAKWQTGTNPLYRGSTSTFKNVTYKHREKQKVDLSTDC
The assay can be described thus: 18F peptide cell binding, αvβ6+ over αvβ6- cells.

Assay [3] deals with T3, αvβ8 integrin (purified), P06756.
T3 chain 1: T1 chain 1
T3 chain 2: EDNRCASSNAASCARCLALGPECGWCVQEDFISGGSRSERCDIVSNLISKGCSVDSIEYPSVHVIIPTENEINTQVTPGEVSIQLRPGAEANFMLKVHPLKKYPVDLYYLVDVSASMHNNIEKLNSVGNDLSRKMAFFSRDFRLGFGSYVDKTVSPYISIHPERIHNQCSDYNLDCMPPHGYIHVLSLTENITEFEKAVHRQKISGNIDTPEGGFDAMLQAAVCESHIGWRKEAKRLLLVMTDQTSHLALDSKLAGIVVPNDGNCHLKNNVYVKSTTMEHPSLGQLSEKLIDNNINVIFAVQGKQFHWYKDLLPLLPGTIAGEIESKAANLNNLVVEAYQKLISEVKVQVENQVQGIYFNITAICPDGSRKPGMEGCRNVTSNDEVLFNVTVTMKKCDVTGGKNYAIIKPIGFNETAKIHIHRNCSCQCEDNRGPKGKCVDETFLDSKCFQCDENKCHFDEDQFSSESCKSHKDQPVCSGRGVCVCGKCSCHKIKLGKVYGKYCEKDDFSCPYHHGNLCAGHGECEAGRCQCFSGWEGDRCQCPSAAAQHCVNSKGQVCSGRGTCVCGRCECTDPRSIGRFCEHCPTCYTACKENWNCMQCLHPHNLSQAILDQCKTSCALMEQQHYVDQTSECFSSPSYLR
The assay can be described thus: competitive ELISA vs BtLAP.

The target in assay [4] is T2, αvβ6 integrin on DX3puroβ6 (αvβ6+) …. The assay can be described thus: 18F peptide binding to DX3puroβ6 (αvβ6+) cells, 1 h, gamma counting.

The IC50 is the midpoint of a concentration-inhibition curve. Low values mean greater potency in that assay, high ones weaker potency in that assay. The molecule RTDLDSLRT (modifications not checked) [RTD-9mer, FB-…] registered a 50% inhibitory concentration (IC50) in assay [1] of 22 nM. Besides, in assay [2], the DX3puroβ6 (αvβ6+)/DX3puro (αvβ6-) selectivity ratio amounted to 1.7.

Consider GRGDLGRL (modifications not checked) [SFLAP3-8mer, FB-GRGDLGRL], for which, in assay [1], the concentration for half-maximal inhibition (IC50) is 89 nM. Also, in assay [2], the DX3puroβ6 (αvβ6+)/DX3puro (αvβ6-) selectivity ratio is 1.4.

With RGDLQVLA (modifications not checked) [A20-8mer, FB-RGDLQVLA], the DX3puroβ6 (αvβ6+)/DX3puro (αvβ6-) selectivity ratio in assay [2] was found to be 7.8.

For the molecule RGDLADLRK (modifications not checked) [P3, …(FB)], the 50% inhibitory concentration (IC50) in assay [1] was 420 nM; in assay [3] it was 200 nM. The DX3puroβ6 (αvβ6+)/DX3puro (αvβ6-) selectivity ratio in assay [2] worked out at 1.4. In addition, the % binding to cells in assay [4] amounted to 10.8%.

Turning to RSDLTPLF (modifications not checked) [KL3, FB-RSDLTPLF], the IC50 in assay [1] turned out to be 1700 nM. The DX3puroβ6 (αvβ6+)/DX3puro (αvβ6-) selectivity ratio in assay [2] is 0.9. Moreover, the % binding to cells in assay [4] was 0.7%.

For the molecule RGDLQVLAQKVART (modifications not checked) [A20-14mer, FB-…], in assay [2], the DX3puroβ6 (αvβ6+)/DX3puro (αvβ6-) selectivity ratio was found to be 8.4.

On to VGDLTYLKK (modifications not checked) [P1, …(FB)], for which the IC50 was determined as 450 nM in assay [1] and 5300 nM in assay [3]. Moreover, the DX3puroβ6 (αvβ6+)/DX3puro (αvβ6-) selectivity ratio in assay [2] stood at 1.1. In assay [4], the % binding to cells turned out to be 12.8%.
